Laboratory results published in patent US20110201024A1.

Target: hRLuc-connector-DhaA.H272F-Flag fusion protein with covalently bound biotin-C18H32O4- (after treatment with biotin-C18H32O4-Cl) (Renilla; Rhodococcus rhodochrous) (UniProt P0A3G2)
Assay: capture on streptavidin-coated 96 well plate after treatment with biotin-C18H32O4-Cl, read as luciferase activity

Question: “streptavidin (SA), coated on 96 well plates (Pierce) or on MagnaBind beads (Pierce #21344) (from UniProt P22629 37-163)” was tested. Which efficiency of capturing (percent of Renilla luciferase activity added to the plate) did it give?
Answer: > 50%
